Source: the Human Domainome abundance scans (Beltran et al. 2025)
± gives the uncertainty stated by the source.

Experiment: abundance fitness (aPCA) (normalised: wild type 0, dead -1); higher = more abundant; growth selection in yeast, the domain comes from the species named
Settings: Homo sapiens

Substance	abundance fitness
Transcriptional activator Myb G175E, P10242	0.023 ± 0.079
Transcriptional activator Myb T188S, P10242	-0.048 ± 0.053
Transcriptional activator Myb L172T, P10242	-0.359 ± 0.11
Transcriptional activator Myb K192Y, P10242	-0.535 ± 0.17
Transcriptional activator Myb Q200W, P10242	-0.345 ± 0.094
Transcriptional activator Myb S203Q, P10242	0.061 ± 0.13
Transcriptional activator Myb R190N, P10242	-0.196 ± 0.19
Transcriptional activator Myb N186H, P10242	-0.139 ± 0.19
Transcriptional activator Myb A167V, P10242	-0.083 ± 0.1
Transcriptional activator Myb E150A, P10242	0.099 ± 0.075
Transcriptional activator Myb K182L, P10242	-0.051 ± 0.068
Transcriptional activator Myb A170F, P10242	-0.896 ± 0.19
Transcriptional activator Myb K143Q, P10242	-0.961 ± 0.36
Transcriptional activator Myb T177S, P10242	-0.003 ± 0.066
Transcriptional activator Myb Y156I, P10242	-0.061 ± 0.13
Transcriptional activator Myb N186S, P10242	-0.062 ± 0.062
Transcriptional activator Myb V193R, P10242	-0.084 ± 0.059
Transcriptional activator Myb T145R, P10242	-0.232 ± 0.071
Transcriptional activator Myb V193Y, P10242	-0.117 ± 0.23
Transcriptional activator Myb L172F, P10242	-0.35 ± 0.24
Transcriptional activator Myb R190A, P10242	-0.023 ± 0.07
Transcriptional activator Myb Y198K, P10242	-0.011 ± 0.13

Substance	abundance fitness
Transcriptional activator Myb I181D, P10242	-1 ± 0.17
Transcriptional activator Myb K144P, P10242	-0.269 ± 0.11
Transcriptional activator Myb W185V, P10242	-0.246 ± 0.053
Transcriptional activator Myb S187G, P10242	-0.023 ± 0.049
Transcriptional activator Myb K182T, P10242	-0.696 ± 0.14
Transcriptional activator Myb E168Y, P10242	-0.657 ± 0.14
Transcriptional activator Myb Q195L, P10242	-0.057 ± 0.091
Transcriptional activator Myb A170V, P10242	-0.428 ± 0.063
Transcriptional activator Myb E194G, P10242	-0.135 ± 0.068
Transcriptional activator Myb I155D, P10242	-0.779 ± 0.15
Transcriptional activator Myb W147E, P10242	-0.563 ± 0.058
Transcriptional activator Myb Q195Y, P10242	-0.26 ± 0.22
Transcriptional activator Myb G163C, P10242	-0.468 ± 0.093
Transcriptional activator Myb E194H, P10242	-0.403 ± 0.49
Transcriptional activator Myb H184L, P10242	-0.623 ± 0.052
Transcriptional activator Myb Q195A, P10242	-0.045 ± 0.079
Transcriptional activator Myb R190M, P10242	0.06 ± 0.14
Transcriptional activator Myb L199N, P10242	0.043 ± 0.14
Transcriptional activator Myb D152T, P10242	-0.138 ± 0.082
Transcriptional activator Myb R191I, P10242	-0.136 ± 0.16
Transcriptional activator Myb E150H, P10242	-0.41 ± 0.15
Transcriptional activator Myb Q195R, P10242	0.091 ± 0.07

Substance	abundance fitness
Transcriptional activator Myb Q195H, P10242	-0.269 ± 0.16
Transcriptional activator Myb Y156R, P10242	-0.102 ± 0.037
Transcriptional activator Myb K192M, P10242	-0.122 ± 0.16
Transcriptional activator Myb E201F, P10242	-0.521 ± 0.35
Transcriptional activator Myb N179L, P10242	0.029 ± 0.059
Transcriptional activator Myb Q195N, P10242	0.107 ± 0.29
Transcriptional activator Myb A180R, P10242	-0.327 ± 0.051
Transcriptional activator Myb T188R, P10242	-0.166 ± 0.04
Transcriptional activator Myb I154C, P10242	-0.328 ± 0.093
Transcriptional activator Myb K171P, P10242	-0.354 ± 0.14
Transcriptional activator Myb S202F, P10242	-0.045 ± 0.093
Transcriptional activator Myb K182D, P10242	-0.548 ± 0.1
Transcriptional activator Myb W185A, P10242	-0.736 ± 0.071
Transcriptional activator Myb S202Q, P10242	-0.102 ± 0.16
Transcriptional activator Myb N179T, P10242	0.026 ± 0.075
Transcriptional activator Myb H184G, P10242	-0.855 ± 0.054
Transcriptional activator Myb Y156S, P10242	-0.036 ± 0.047
Transcriptional activator Myb G175R, P10242	-0.281 ± 0.053
Transcriptional activator Myb S146F, P10242	-0.021 ± 0.19
Transcriptional activator Myb Y156D, P10242	-0.049 ± 0.086
Transcriptional activator Myb R176C, P10242	-0.148 ± 0.12
Transcriptional activator Myb Y156A, P10242	-0.056 ± 0.049

Substance	abundance fitness
Transcriptional activator Myb R190C, P10242	-0.117 ± 0.18
Transcriptional activator Myb A167D, P10242	-0.177 ± 0.16
Transcriptional activator Myb L173S, P10242	-0.933 ± 0.11
Transcriptional activator Myb E194F, P10242	-0.168 ± 0.27
Transcriptional activator Myb I154A, P10242	-0.215 ± 0.054
Transcriptional activator Myb V193K, P10242	-0.154 ± 0.14
Transcriptional activator Myb E196M, P10242	-0.084 ± 0.093
Transcriptional activator Myb T188C, P10242	-0.037 ± 0.088
Transcriptional activator Myb T145P, P10242	-0.212 ± 0.12
Transcriptional activator Myb H184E, P10242	-0.783 ± 0.1
Transcriptional activator Myb T177V, P10242	-0.371 ± 0.062
Transcriptional activator Myb E194V, P10242	-0.037 ± 0.095
Transcriptional activator Myb Y156K, P10242	-0.13 ± 0.062
Transcriptional activator Myb K143R, P10242	-0.228 ± 0.12
Transcriptional activator Myb W185M, P10242	-0.327 ± 0.13
Transcriptional activator Myb I169F, P10242	-0.516 ± 0.12
Transcriptional activator Myb I181E, P10242	-0.64 ± 0.11
Transcriptional activator Myb A167Q, P10242	0.015 ± 0.14
Transcriptional activator Myb T177E, P10242	-0.013 ± 0.069
Transcriptional activator Myb G197L, P10242	-0.34 ± 0.083
Transcriptional activator Myb Q200V, P10242	-0.087 ± 0.074
Transcriptional activator Myb Q200K, P10242	0.002 ± 0.088

Substance	abundance fitness
Transcriptional activator Myb T145G, P10242	-0.091 ± 0.061
Transcriptional activator Myb E150W, P10242	-0.208 ± 0.083
Transcriptional activator Myb E151G, P10242	-0.815 ± 0.056
Transcriptional activator Myb Q200G, P10242	0.014 ± 0.049
Transcriptional activator Myb S203P, P10242	-0.139 ± 0.12
Transcriptional activator Myb G163A, P10242	-0.329 ± 0.069
Transcriptional activator Myb H184S, P10242	-0.854 ± 0.067
Transcriptional activator Myb W147R, P10242	-0.824 ± 0.039
Transcriptional activator Myb V193N, P10242	-0.032 ± 0.26
Transcriptional activator Myb E151T, P10242	-0.731 ± 0.12
Transcriptional activator Myb V193S, P10242	-0.11 ± 0.066
Transcriptional activator Myb L172R, P10242	-0.279 ± 0.056
Transcriptional activator Myb E168T, P10242	-0.573 ± 0.32
Transcriptional activator Myb T148A, P10242	-0.286 ± 0.039
Transcriptional activator Myb R190H, P10242	-0.189 ± 0.17
Transcriptional activator Myb G175Y, P10242	-0.256 ± 0.14
Transcriptional activator Myb K204Y, P10242	-0.16 ± 0.25
Transcriptional activator Myb L172H, P10242	-0.173 ± 0.14
Transcriptional activator Myb E151H, P10242	-0.57 ± 0.13
Transcriptional activator Myb E194Y, P10242	-0.174 ± 0.24
